From ChEMBL document CHEMBL1143427, “Interactions of ceftobiprole with beta-lactamases from molecular classes A to D” (Antimicrob Agents Chemother, 2007)

Legend:
Conditions in all cases: Enterobacter cloacae
[1] = substrate: CO/N=C(\C(=O)N[C@@H]1C(=O)N2C(C(=O)[O-])=C(C[N+]3(C)CCCC3)CS[C@H]12)c1csc(N)n1
Description: (§1) Activity of Enterobacter cloacae 4092 AmpC (E2) assessed as drug hydrolysis by spectrophotometry

[2] = substrate: O=C(Cc1cccs1)N[C@@H]1C(=O)N2C(C(=O)[O-])=C(C[n+]3ccccc3)CS[C@H]12
Description: as §1

[3] = substrate: O=C(Cc1cccs1)N[C@@H]1C(=O)N2C(C(=O)O)=C(/C=C/c3ccc([N+](=O)[O-])cc3[N+](=O)[O-])CS[C@H]12
Description: as §1

[4] = substrate: CC(C)(O/N=C(\C(=O)N[C@@H]1C(=O)N2C(C(=O)[O-])=C(C[n+]3ccccc3)CS[C@H]12)c1csc(N)n1)C(=O)O
Description: as §1

[5] = substrate: Nc1nc(/C(=N/O)C(=O)N[C@@H]2C(=O)N3C(C(=O)O)=C(/C=C4\CCN([C@@H]5CCNC5)C4=O)CS[C@H]23)ns1
Description: as §1

[6] = substrate: CC1(C)S[C@@H]2[C@H](NC(=O)Cc3ccccc3)C(=O)N2[C@H]1C(=O)O
Description: as §1

[7] = substrate: CO/N=C(\C(=O)N[C@@H]1C(=O)N2C(C(=O)[O-])=C(C[N+]3(C)CCCC3)CS[C@H]12)c1csc(N)n1; remark: listed apart in the source
Description: (§2) Ratio of Kcat to Km of Enterobacter cloacae 4092 AmpC (E2) assessed as drug hydrolysis by spectrophotometry

[8] = substrate: O=C(Cc1cccs1)N[C@@H]1C(=O)N2C(C(=O)[O-])=C(C[n+]3ccccc3)CS[C@H]12; remark: listed apart in the source
Description: as §2

[9] = substrate: O=C(Cc1cccs1)N[C@@H]1C(=O)N2C(C(=O)O)=C(/C=C/c3ccc([N+](=O)[O-])cc3[N+](=O)[O-])CS[C@H]12; remark: listed apart in the source
Description: as §2

[10] = substrate: CC(C)(O/N=C(\C(=O)N[C@@H]1C(=O)N2C(C(=O)[O-])=C(C[n+]3ccccc3)CS[C@H]12)c1csc(N)n1)C(=O)O; remark: listed apart in the source
Description: as §2

[11] = substrate: Nc1nc(/C(=N/O)C(=O)N[C@@H]2C(=O)N3C(C(=O)O)=C(/C=C4\CCN([C@@H]5CCNC5)C4=O)CS[C@H]23)ns1; remark: listed apart in the source
Description: as §2

[12] = substrate: CC1(C)S[C@@H]2[C@H](NC(=O)Cc3ccccc3)C(=O)N2[C@H]1C(=O)O; remark: listed apart in the source
Description: as §2

[13] = substrate: CC(C)(O/N=C(\C(=O)N[C@@H]1C(=O)N2C(C(=O)[O-])=C(C[n+]3ccccc3)CS[C@H]12)c1csc(N)n1)C(=O)O; remark: listed apart in the source
Description: (§3) Activity of Enterobacter cloacae 908R AmpC assessed as drug hydrolysis by spectrophotometry

[14] = substrate: Nc1nc(/C(=N/O)C(=O)N[C@@H]2C(=O)N3C(C(=O)O)=C(/C=C4\CCN([C@@H]5CCNC5)C4=O)CS[C@H]23)ns1; remark: listed apart in the source
Description: as §3

[15] = substrate: CC1(C)S[C@@H]2[C@H](NC(=O)Cc3ccccc3)C(=O)N2[C@H]1C(=O)O; remark: listed apart in the source
Description: as §3

[16] = substrate: CO/N=C(\C(=O)N[C@@H]1C(=O)N2C(C(=O)[O-])=C(C[N+]3(C)CCCC3)CS[C@H]12)c1csc(N)n1; remark: listed apart in the source
Description: (§4) Ratio of Kcat to Km of Enterobacter cloacae 908R AmpC assessed as drug hydrolysis by spectrophotometry

[17] = substrate: O=C(Cc1cccs1)N[C@@H]1C(=O)N2C(C(=O)[O-])=C(C[n+]3ccccc3)CS[C@H]12; remark: listed apart in the source
Description: as §4

[18] = substrate: CC(C)(O/N=C(\C(=O)N[C@@H]1C(=O)N2C(C(=O)[O-])=C(C[n+]3ccccc3)CS[C@H]12)c1csc(N)n1)C(=O)O; remark: listed apart in the source
Description: as §4

[19] = substrate: Nc1nc(/C(=N/O)C(=O)N[C@@H]2C(=O)N3C(C(=O)O)=C(/C=C4\CCN([C@@H]5CCNC5)C4=O)CS[C@H]23)ns1; remark: listed apart in the source
Description: as §4

[20] = substrate: CC1(C)S[C@@H]2[C@H](NC(=O)Cc3ccccc3)C(=O)N2[C@H]1C(=O)O; remark: listed apart in the source
Description: as §4

[21] = substrate: CO/N=C(\C(=O)N[C@@H]1C(=O)N2C(C(=O)[O-])=C(C[N+]3(C)CCCC3)CS[C@H]12)c1csc(N)n1; remark: listed apart in the source
Description: (§5) Ratio of Kcat to Km of Enterobacter cloacae 4080 AmpC (P99) assessed as drug hydrolysis by spectrophotometry

[22] = substrate: O=C(Cc1cccs1)N[C@@H]1C(=O)N2C(C(=O)[O-])=C(C[n+]3ccccc3)CS[C@H]12; remark: listed apart in the source
Description: as §5

[23] = substrate: CC(C)(O/N=C(\C(=O)N[C@@H]1C(=O)N2C(C(=O)[O-])=C(C[n+]3ccccc3)CS[C@H]12)c1csc(N)n1)C(=O)O; remark: listed apart in the source
Description: as §5

[24] = substrate: Nc1nc(/C(=N/O)C(=O)N[C@@H]2C(=O)N3C(C(=O)O)=C(/C=C4\CCN([C@@H]5CCNC5)C4=O)CS[C@H]23)ns1; remark: listed apart in the source
Description: as §5

[25] = substrate: CC1(C)S[C@@H]2[C@H](NC(=O)Cc3ccccc3)C(=O)N2[C@H]1C(=O)O; remark: listed apart in the source
Description: as §5

B1: Beta-lactamase (Enterobacter cloacae), P05364 (protein)
chain: MMRKSLCCALLLGISCSALATPVSEKQLAEVVANTITPLMKAQSVPGMAVAVIYQGKPHYYTFGKADIAANKPVTPQTLFELGSISKTFTGVLGGDAIARGEISLDDAVTRYWPQLTGKQWQGIRMLDLATYTAGGLPLQVPDEVTDNASLLRFYQNWQPQWKPGTTRLYANASIGLFGALAVKPSGMPYEQAMTTRVLKPLKLDHTWINVPKAEEAHYAWGYRDGKAVRVSPGMLDAQAYGVKTNVQDMANWVMANMAPENVADASLKQGIALAQSRYWRIGSMYQGLGWEMLNWPVEANTVVEGSDSKVALAPLPVAEVNPPAPPVKASWVHKTGSTGGFGSYVAFIPEKQIGIVMLANTSYPNPARVEAAYHILEALQ
- Km [1]: > 630 µM
- kcat [1]: < 0.021 s⁻¹
- Km [2]: 480 µM
- kcat [2]: 690 s⁻¹
- Km [3]: 56 µM
- kcat [3]: 570 s⁻¹
- Km [4]: 110 µM
- kcat [4]: 0.16 s⁻¹
- Km [5]: 26 µM
- kcat [5]: < 0.057 s⁻¹
- Km [6]: 8.3 µM
- kcat [6]: 65 s⁻¹
- kcat/Km [7]: < 33 M⁻¹ s⁻¹
- kcat/Km [8]: 1.5e+06 M⁻¹ s⁻¹
- kcat/Km [9]: 1e+07 M⁻¹ s⁻¹
- kcat/Km [10]: 1500 M⁻¹ s⁻¹
- kcat/Km [11]: < 2200 M⁻¹ s⁻¹
- kcat/Km [12]: 7.8e+06 M⁻¹ s⁻¹
- Km [13]: 3.5 µM
- kcat [13]: 2.3 s⁻¹
- Km [14]: 12 µM
- kcat [14]: 0.45 s⁻¹
- Km [15]: 6 µM
- kcat [15]: 53 s⁻¹
- kcat/Km [16]: 75000 M⁻¹ s⁻¹
- kcat/Km [17]: 8.9e+06 M⁻¹ s⁻¹
- kcat/Km [18]: 660000 M⁻¹ s⁻¹
- kcat/Km [19]: 38000 M⁻¹ s⁻¹
- kcat/Km [20]: 8.8e+06 M⁻¹ s⁻¹
- kcat/Km [21]: 4000 M⁻¹ s⁻¹
- kcat/Km [22]: 7.6e+06 M⁻¹ s⁻¹
- kcat/Km [23]: 7200 M⁻¹ s⁻¹
- kcat/Km [24]: 22000 M⁻¹ s⁻¹
- kcat/Km [25]: 6.8e+06 M⁻¹ s⁻¹
